Test results as given in publication PMC3069404 (The Journal of Biological Chemistry, 2011).

Assays:
Cse4/H4 = Cse4/H4 (S. cerevisiae, UniProt P36012 1-229; P02309 1-103); assay: reconstitution of the complex from the separate proteins
Cse4 (recombinant) = Cse4 (recombinant) (S. cerevisiae, UniProt P36012 1-229); assay: as above
Sequence of Cse4 (recombinant) (P36012 whole entry): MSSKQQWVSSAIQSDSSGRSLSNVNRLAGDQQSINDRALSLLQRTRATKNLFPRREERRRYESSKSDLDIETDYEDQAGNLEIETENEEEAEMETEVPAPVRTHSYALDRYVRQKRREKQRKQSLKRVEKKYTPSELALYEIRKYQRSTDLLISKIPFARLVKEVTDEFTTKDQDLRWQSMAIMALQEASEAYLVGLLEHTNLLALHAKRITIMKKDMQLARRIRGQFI

Sequence of Cse4/H4 (P36012 whole entry, one chain of several): as the sequence (P36012 whole entry) above

B1: His6-Scm3-Δ25N (recombinant) (domain or fragment, S. cerevisiae, UniProt Q12334 26-223, looked up)
chain: ESGKKSESKIRKHSDCNPVHRVYPPNIEKRKTKKDDGISRPIAERNGHVYIMSKENHIIPKLTDDEVMERHKLADENMRKVWSNIISKYESIEEQGDLVDLKTGEIVEDNGHIKTLTANNSTKDKRTKYTSVLRDIIDISDEEDGDKNDEYTLWANDSEASDSEVDADNDTEEEKDEKLIDADFKKYEAKLSKRILRD
Cse4/H4
  binding result: binds
Cse4 (recombinant)
  binding result: binds
